Experimental data published in US20250257332A1 (MONASH UNIVERSITY, published 2025).

Biological target: T1, recombinant mouse CCR5 (MyBioSource) (mouse, UniProt P51682 1-354, limits assumed)
T1 construct: Coated on ELISA plates at 20 nM; also called mrCCR5
Experiment: competition ELISA: hNAMPTcif 0-100 nM against 100 nM hrNAMPT(1) on coated recombinant mouse CCR5
Description: hrNAMPT competitive binding to mrCCR5: ELISA plates (Medium binding, Greiner Bio-One) were coated with 1% BSA or 20 nM of recombinant mouse CCR5 (MyBioSource) in PBS overnight at 4° C. Then, wells were blocked for 1 h at room temperature with 1% BSA in PBS containing 0.05% Tween-20 (PBS-T). Wells were washed 3 times with PBS-T and further incubated with hNAMPTcif at increasing concentration (0 nM to 100 nM) for 1 h in PBS-T with 0.1% BSA containing 100 nM hrNAMPT (1) (Peprotech). Bound hrNAMPT (1) molecules were detected using a biotinylated antibody for NAMPT and HRP-streptavidin (Human PBEF/Visfatin DuoSet ELISA, R&D Systems). Signals obtained on BSA-coated wells were used to remove non-specific binding for each hrNAMPT concentrations to obtain specific binding values. Specific binding data were fitted by non-linear regression with Prism 7 to obtain the half maximal inhibitory concentration (IC50) of hNAMPTnif using A450nm=A450nmMin+(A450nmMax−A450nmMin)/(1+10\hat{ }(X-LogIC50)).

T1 sequence (P51682 whole entry): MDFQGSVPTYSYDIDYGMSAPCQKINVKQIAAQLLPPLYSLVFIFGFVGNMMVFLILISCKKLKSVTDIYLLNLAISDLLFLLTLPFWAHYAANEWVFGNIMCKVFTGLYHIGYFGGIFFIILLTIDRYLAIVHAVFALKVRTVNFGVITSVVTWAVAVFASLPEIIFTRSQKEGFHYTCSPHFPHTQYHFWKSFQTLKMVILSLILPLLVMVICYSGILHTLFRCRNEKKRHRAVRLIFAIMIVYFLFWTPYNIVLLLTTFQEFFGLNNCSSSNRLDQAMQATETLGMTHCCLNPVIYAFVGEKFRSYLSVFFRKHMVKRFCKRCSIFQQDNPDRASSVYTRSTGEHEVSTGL

- IC50: 21.5 nM
B1: human NAMPT cytokine finger (hNAMPTcif; NAMPT402-491) (ligand)
chain: SYVVTNGLGINVFKDPVADPNKRSKKGRLSLHRTPAGNFVTLEEGKGDLEEYGQDLLHTVFKNGKVTKSYSFDEIRKNAQLNIELEAAHH
notes: also called hNAMPTnif
